Series [1] concerns the target T1, ORF1_(53-152) (coiled-coil domain of ORF1) (human, UniProt Q9UN81 53-152).
T1 construct: Non-labeled in the NMR experiments; also called full-length coiled-coil domain; trimeric coiled-coil domain; source: E. coli BL21STAR(DE3), purified (Ni-NTA, Sephacryl S-300 gel filtration)
T1 sequence (looked up): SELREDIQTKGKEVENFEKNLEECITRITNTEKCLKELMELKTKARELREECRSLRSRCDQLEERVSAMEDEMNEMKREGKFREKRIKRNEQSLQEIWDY
Description: NMR titration; 15N-1H HSQC and 15N relaxation of the 15N-enriched N-terminal construct with non-labeled coiled-coil construct added (equimolar, 700 uM each in Fig. 3C); 25 °C; 20 mM HEPES pH 7.25 or 20 mM MES pH 6.0, 200 mM NaCl, 1 mM DTT. Particulars: both partners purified.

Series [2] deals with the molecule itself. Description: SEC; gel filtration, GE HiPrep 16/60 Sephacryl S-300 HR, 20 mM Tris pH 8.0, 1 M NaCl, 1 mM DTT; self-association (trimer).

B1: ORF1_(1-46) (domain or fragment, human, UniProt Q9UN81 1-46, looked up)
chain: MGKKQNRKTGNSKTQSASPPPKERSSSPATEQSWMENDFDELREEG
notes: LINE-1 ORF1 protein, human, residues 1-46; Observed by 15N-1H HSQC, so isotope enriched; also called truncated ORF1_(1-46) construct; source: E. coli BL21STAR(DE3), purified (Ni-NTA, gel filtration)
For the molecule B1, the binding result in series [1] was “binds”.

B2: ORF1_(1-141) (domain or fragment, human, UniProt Q9UN81 1-141, looked up)
chain: MGKKQNRKTGNSKTQSASPPPKERSSSPATEQSWMENDFDELREEGFRRSNYSELREDIQTKGKEVENFEKNLEECITRITNTEKCLKELMELKTKARELREECRSLRSRCDQLEERVSAMEDEMNEMKREGKFREKRIKR
notes: LINE-1 ORF1 protein, human, residues 1-141 (N-terminus and coiled-coil domain lacking the C-terminal 12 residues); source: E. coli BL21STAR(DE3), purified (Ni-NTA, gel filtration)
On to B2, for which the “stoichiometry N” value in series [2] is 3.

B3: full-length ORF1_(1-338) protein (LINE-1 ORF1 protein) (natural protein, human, UniProt Q9UN81 1-338, looked up)
chain: MGKKQNRKTGNSKTQSASPPPKERSSSPATEQSWMENDFDELREEGFRRSNYSELREDIQTKGKEVENFEKNLEECITRITNTEKCLKELMELKTKARELREECRSLRSRCDQLEERVSAMEDEMNEMKREGKFREKRIKRNEQSLQEIWDYVKRPNLRLIGVPESDVENGTKLENTLQDIIQENFPNLARQANVQIQEIQRTPQRYSSRRATPRHIIVRFTKVEMKEKMLRAAREKGRVTLKGKPIRLTADLSAETLQARREWGPIFNILKEKNFQPRISYPAKLSFISEGEIKYFIDKQMLRDFVTTRPALKELLKEALNMERNNRYQPLQNHAKM
notes: LINE-1 (L1) ORF1 protein, human, residues 1-338, 40 kDa; No tag removal is described; The histidine tag is only named in the legends for ORF1_(1-53); also called L1 ORF1 protein; wild-type ORF1; source: E. coli BL21STAR(DE3), purified (Ni-NTA, Sephacryl S-300 gel filtration)
With B3, in series [2], the “stoichiometry N” value came out at 3.

B4: ORF1_(1-131) (domain or fragment, human, UniProt Q9UN81 1-131, looked up)
chain: MGKKQNRKTGNSKTQSASPPPKERSSSPATEQSWMENDFDELREEGFRRSNYSELREDIQTKGKEVENFEKNLEECITRITNTEKCLKELMELKTKARELREECRSLRSRCDQLEERVSAMEDEMNEMKRE
notes: LINE-1 ORF1 protein, human, residues 1-131 (N-terminus and coiled-coil domain lacking the C-terminal 22 residues); source: E. coli BL21STAR(DE3), purified (Ni-NTA, gel filtration)
As for B4, the “stoichiometry N” value in series [2] was 3.

B5: ORF1_(1-53) (disordered N-terminal region of ORF1) (domain or fragment, human, UniProt Q9UN81 1-53, looked up)
chain: MGKKQNRKTGNSKTQSASPPPKERSSSPATEQSWMENDFDELREEGFRRSNYS
notes: LINE-1 ORF1 protein, human, residues 1-53; 15N (and for assignment 13C) isotope enriched for NMR; also called N-terminus; N-terminal region (1-53); source: E. coli BL21STAR(DE3), purified (Ni-NTA, heat 70°C, gel filtration); not shown: histidine tag, C-terminal, kept
Regarding B5, in series [1], the binding result is listed as “binds”.

The values are drawn from publication doi:10.1101/2020.10.29.360719, “Phase separation of the LINE-1 ORF1 protein is mediated by the N-terminus and coiled-coil domain” (bioRxiv, 2020).
